Reference: article doi:10.1101/2020.05.01.070730 (bioRxiv, 2020)
Where a chain is given by its changes, count along the chain named. Read-outs that look alike come from different tables or passages of the source.

B1: GT-pDNA (GT 8 nt from 3'-OH) (dsDNA)
DNA 1: ATGTGAATCAGTATGGTTGCTATCTGC
DNA 2: ATTTCCTTCAGCAGATAGTAACCATACTGATTCACAT
B2: pDNA (AT) (dsDNA)
DNA 1: ATGTGAATCAGTATGGTTACTATCTGC
DNA 2: B1 DNA 2
B3: GT-dsDNA (GT 18 nt from 3' end) (dsDNA)
DNA 1: ATGTGAATCAGTATGGTTGCTATCTGCTGAAGGAAAT
DNA 2: B1 DNA 2
B4: dsDNA (dsDNA)
DNA 1: B3 DNA 1 with G19A
DNA 2: B1 DNA 2

What was measured:
MutS E. coli [1] = target: T1, MutS E. coli (Escherichia coli, UniProt P23909 1-853); experiment: native PAGE shift
T1 sequence: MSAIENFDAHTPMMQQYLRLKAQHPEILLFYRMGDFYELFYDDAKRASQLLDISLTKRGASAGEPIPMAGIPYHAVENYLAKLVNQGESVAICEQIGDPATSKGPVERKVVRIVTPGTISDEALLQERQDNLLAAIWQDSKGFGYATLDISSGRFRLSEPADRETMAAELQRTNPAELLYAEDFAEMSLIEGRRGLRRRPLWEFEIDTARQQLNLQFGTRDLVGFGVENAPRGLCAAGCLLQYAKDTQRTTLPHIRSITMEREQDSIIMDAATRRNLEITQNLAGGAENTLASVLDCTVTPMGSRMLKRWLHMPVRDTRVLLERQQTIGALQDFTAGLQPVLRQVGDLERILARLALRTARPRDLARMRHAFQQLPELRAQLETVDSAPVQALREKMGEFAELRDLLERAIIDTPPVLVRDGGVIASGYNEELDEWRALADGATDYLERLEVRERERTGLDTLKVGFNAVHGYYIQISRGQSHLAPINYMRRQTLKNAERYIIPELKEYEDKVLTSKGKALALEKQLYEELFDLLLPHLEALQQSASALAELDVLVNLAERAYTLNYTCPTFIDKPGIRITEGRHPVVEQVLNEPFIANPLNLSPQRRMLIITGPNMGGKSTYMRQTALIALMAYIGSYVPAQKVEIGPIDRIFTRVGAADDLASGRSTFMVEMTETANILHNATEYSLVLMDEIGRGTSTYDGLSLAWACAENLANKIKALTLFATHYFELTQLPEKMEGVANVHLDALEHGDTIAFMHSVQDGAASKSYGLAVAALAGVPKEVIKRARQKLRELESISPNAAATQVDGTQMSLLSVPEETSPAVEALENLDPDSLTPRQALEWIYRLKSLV

MutS [2] = target: T2, MutS (Pseudomonas aeruginosa, UniProt Q9HY08 1-855); experiment: EMSA
T2 sequence: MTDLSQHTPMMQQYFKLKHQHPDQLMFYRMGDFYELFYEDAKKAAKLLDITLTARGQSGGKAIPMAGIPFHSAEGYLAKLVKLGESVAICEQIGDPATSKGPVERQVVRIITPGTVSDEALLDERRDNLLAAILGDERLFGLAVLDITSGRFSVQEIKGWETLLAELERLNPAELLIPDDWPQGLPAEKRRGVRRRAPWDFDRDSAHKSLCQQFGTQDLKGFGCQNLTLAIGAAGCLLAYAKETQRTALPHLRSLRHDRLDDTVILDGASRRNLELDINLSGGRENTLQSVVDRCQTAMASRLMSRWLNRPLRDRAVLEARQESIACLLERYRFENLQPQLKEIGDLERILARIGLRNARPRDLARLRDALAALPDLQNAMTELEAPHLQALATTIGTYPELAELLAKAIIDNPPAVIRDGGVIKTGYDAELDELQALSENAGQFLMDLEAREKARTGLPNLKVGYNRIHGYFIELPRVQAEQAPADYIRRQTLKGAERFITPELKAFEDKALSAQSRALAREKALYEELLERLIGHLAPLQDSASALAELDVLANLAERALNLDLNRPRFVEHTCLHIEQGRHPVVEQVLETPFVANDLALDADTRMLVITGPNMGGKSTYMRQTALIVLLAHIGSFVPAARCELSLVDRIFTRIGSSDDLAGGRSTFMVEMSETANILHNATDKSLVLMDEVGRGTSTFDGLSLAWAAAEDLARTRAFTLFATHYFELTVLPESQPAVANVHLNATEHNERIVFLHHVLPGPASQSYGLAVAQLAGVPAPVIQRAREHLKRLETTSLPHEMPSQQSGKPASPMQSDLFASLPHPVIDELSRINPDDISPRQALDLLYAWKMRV

MutS [3] = target: T2, MutS; experiment: SPR
MutS [4] = target: T2, MutS; experiment: SPR; remark: listed apart in the source
MutS E. coli [5] = target: T1, MutS E. coli; experiment: native PAGE shift; remark: listed apart in the source
MutS [6] = target: T2, MutS; experiment: SPR; remark: listed apart in the source

Binder	binding result (MutS E. coli [1])	Kd (MutS [2])	Kd (MutS [3])	Kd (MutS [4])	binding result (MutS E. coli [5])	Kd (MutS [6])
B1	binds	20 ± 0.1 nM	53.3 ± 3.7 nM			
B2		50.7 ± 2.3 nM				
B3		35 ± 0.9 nM		118 ± 8.9 nM	binds	
B4		331 ± 15.9 nM				1960 nM
